From the RNAGym collection of RNA variant scans (doi:10.1021/acssynbio.7b00057)

B1: Pistol ribozyme (parent)
chain: GGGUCGUUGUUCCAUAAUCGCGUGGAUAUGGCACGCAAGUUUCUACCGGGCACCGUAAAUGUCCGACUGGAGCCGUUCGGGCGGCUAUAAACAGACCUCAGGCCCGAAGCGUGGCGGCACCUGCCGCCGGUGGUAAAAAAGAUCGGAAGAGCACACGUCU

Variants of: B1
Assay: aptazyme ON/OFF ratio, guanine; higher = stronger switching; co-transcriptional cleavage with and without guanine

Variant | aptazyme ON/OFF ratio
GGGUCGAGAACUAAUAAUCGCGUGGAUAUGGCACGCAAGUUUCUACCGGGCACCGUAAAUGUCCGACUGGAGCCGUUCGGGCGGCUAUAAACAGACCUCAGGCCCGAAGCGUGGCGGCACCUGCCGCCGGUGGUAAAAAAGAUCGGAAGAGCACACGUCU [U7A U8G G9A U10A U11C C12U C13A] | 1.15
GGGUCGAGAACUUAUAAUCGCGUGGAUAUGGCACGCAAGUUUCUACCGGGCACCGUAAAUGUCCGACUGGAGCCGUUCGGGCGGCUAUAAACAGACCUCAGGCCCGAAGCGUGGCGGCACCUGCCGCCGGUGGUAAAAAAGAUCGGAAGAGCACACGUCU [U7A U8G G9A U10A U11C C12U C13U] | 1.26
GGGUCGAGAACUGAUAAUCGCGUGGAUAUGGCACGCAAGUUUCUACCGGGCACCGUAAAUGUCCGACUGGAGCCGUUCGGGCGGCUAUAAACAGACCUCAGGCCCGAAGCGUGGCGGCACCUGCCGCCGGUGGUAAAAAAGAUCGGAAGAGCACACGUCU [U7A U8G G9A U10A U11C C12U C13G] | 1.17
GGGUCGAGAAGCCAUAAUCGCGUGGAUAUGGCACGCAAGUUUCUACCGGGCACCGUAAAUGUCCGACUGGAGCCGUUCGGGCGGCUAUAAACAGACCUCAGGCCCGAAGCGUGGCGGCACCUGCCGCCGGUGGUAAAAAAGAUCGGAAGAGCACACGUCU [U7A U8G G9A U10A U11G] | 1.8
GGGUCGAGACUUCAUAAUCGCGUGGAUAUGGCACGCAAGUUUCUACCGGGCACCGUAAAUGUCCGACUGGAGCCGUUCGGGCGGCUAUAAACAGACCUCAGGCCCGAAGCGUGGCGGCACCUGCCGCCGGUGGUAAAAAAGAUCGGAAGAGCACACGUCU [U7A U8G G9A U10C C12U] | 1.23
GGGUCGAGACUGCAUAAUCGCGUGGAUAUGGCACGCAAGUUUCUACCGGGCACCGUAAAUGUCCGACUGGAGCCGUUCGGGCGGCUAUAAACAGACCUCAGGCCCGAAGCGUGGCGGCACCUGCCGCCGGUGGUAAAAAAGAUCGGAAGAGCACACGUCU [U7A U8G G9A U10C C12G] | 1.35
GGGUCGAGACUACAUAAUCGCGUGGAUAUGGCACGCAAGUUUCUACCGGGCACCGUAAAUGUCCGACUGGAGCCGUUCGGGCGGCUAUAAACAGACCUCAGGCCCGAAGCGUGGCGGCACCUGCCGCCGGUGGUAAAAAAGAUCGGAAGAGCACACGUCU [U7A U8G G9A U10C C12A] | 1.25
GGGUCGAGACUUUAUAAUCGCGUGGAUAUGGCACGCAAGUUUCUACCGGGCACCGUAAAUGUCCGACUGGAGCCGUUCGGGCGGCUAUAAACAGACCUCAGGCCCGAAGCGUGGCGGCACCUGCCGCCGGUGGUAAAAAAGAUCGGAAGAGCACACGUCU [U7A U8G G9A U10C C12U C13U] | 1.27
GGGUCGAGACUUGAUAAUCGCGUGGAUAUGGCACGCAAGUUUCUACCGGGCACCGUAAAUGUCCGACUGGAGCCGUUCGGGCGGCUAUAAACAGACCUCAGGCCCGAAGCGUGGCGGCACCUGCCGCCGGUGGUAAAAAAGAUCGGAAGAGCACACGUCU [U7A U8G G9A U10C C12U C13G] | 1.13
GGGUCGAGACUUAAUAAUCGCGUGGAUAUGGCACGCAAGUUUCUACCGGGCACCGUAAAUGUCCGACUGGAGCCGUUCGGGCGGCUAUAAACAGACCUCAGGCCCGAAGCGUGGCGGCACCUGCCGCCGGUGGUAAAAAAGAUCGGAAGAGCACACGUCU [U7A U8G G9A U10C C12U C13A] | 1.17
GGGUCGAGACUCCAUAAUCGCGUGGAUAUGGCACGCAAGUUUCUACCGGGCACCGUAAAUGUCCGACUGGAGCCGUUCGGGCGGCUAUAAACAGACCUCAGGCCCGAAGCGUGGCGGCACCUGCCGCCGGUGGUAAAAAAGAUCGGAAGAGCACACGUCU [U7A U8G G9A U10C] | 2.9
GGGUCGAGACUGAAUAAUCGCGUGGAUAUGGCACGCAAGUUUCUACCGGGCACCGUAAAUGUCCGACUGGAGCCGUUCGGGCGGCUAUAAACAGACCUCAGGCCCGAAGCGUGGCGGCACCUGCCGCCGGUGGUAAAAAAGAUCGGAAGAGCACACGUCU [U7A U8G G9A U10C C12G C13A] | 1.19
GGGUCGAGACUGGAUAAUCGCGUGGAUAUGGCACGCAAGUUUCUACCGGGCACCGUAAAUGUCCGACUGGAGCCGUUCGGGCGGCUAUAAACAGACCUCAGGCCCGAAGCGUGGCGGCACCUGCCGCCGGUGGUAAAAAAGAUCGGAAGAGCACACGUCU [U7A U8G G9A U10C C12G C13G] | 1.38
GGGUCGAGACUGUAUAAUCGCGUGGAUAUGGCACGCAAGUUUCUACCGGGCACCGUAAAUGUCCGACUGGAGCCGUUCGGGCGGCUAUAAACAGACCUCAGGCCCGAAGCGUGGCGGCACCUGCCGCCGGUGGUAAAAAAGAUCGGAAGAGCACACGUCU [U7A U8G G9A U10C C12G C13U] | 1.17
GGGUCGAGAAGCAAUAAUCGCGUGGAUAUGGCACGCAAGUUUCUACCGGGCACCGUAAAUGUCCGACUGGAGCCGUUCGGGCGGCUAUAAACAGACCUCAGGCCCGAAGCGUGGCGGCACCUGCCGCCGGUGGUAAAAAAGAUCGGAAGAGCACACGUCU [U7A U8G G9A U10A U11G C13A] | 1.13
GGGUCGAGAAGCUAUAAUCGCGUGGAUAUGGCACGCAAGUUUCUACCGGGCACCGUAAAUGUCCGACUGGAGCCGUUCGGGCGGCUAUAAACAGACCUCAGGCCCGAAGCGUGGCGGCACCUGCCGCCGGUGGUAAAAAAGAUCGGAAGAGCACACGUCU [U7A U8G G9A U10A U11G C13U] | 1.09
GGGUCGAGAAGCGAUAAUCGCGUGGAUAUGGCACGCAAGUUUCUACCGGGCACCGUAAAUGUCCGACUGGAGCCGUUCGGGCGGCUAUAAACAGACCUCAGGCCCGAAGCGUGGCGGCACCUGCCGCCGGUGGUAAAAAAGAUCGGAAGAGCACACGUCU [U7A U8G G9A U10A U11G C13G] | 1.27
GGGUCGAGAAGAUAUAAUCGCGUGGAUAUGGCACGCAAGUUUCUACCGGGCACCGUAAAUGUCCGACUGGAGCCGUUCGGGCGGCUAUAAACAGACCUCAGGCCCGAAGCGUGGCGGCACCUGCCGCCGGUGGUAAAAAAGAUCGGAAGAGCACACGUCU [U7A U8G G9A U10A U11G C12A C13U] | 1.4

Variant | aptazyme ON/OFF ratio
GGGUCGAGAAGAAAUAAUCGCGUGGAUAUGGCACGCAAGUUUCUACCGGGCACCGUAAAUGUCCGACUGGAGCCGUUCGGGCGGCUAUAAACAGACCUCAGGCCCGAAGCGUGGCGGCACCUGCCGCCGGUGGUAAAAAAGAUCGGAAGAGCACACGUCU [U7A U8G G9A U10A U11G C12A C13A] | 1.1
GGGUCGAGAAGAGAUAAUCGCGUGGAUAUGGCACGCAAGUUUCUACCGGGCACCGUAAAUGUCCGACUGGAGCCGUUCGGGCGGCUAUAAACAGACCUCAGGCCCGAAGCGUGGCGGCACCUGCCGCCGGUGGUAAAAAAGAUCGGAAGAGCACACGUCU [U7A U8G G9A U10A U11G C12A C13G] | 1.37
GGGUCGAGAAGGUAUAAUCGCGUGGAUAUGGCACGCAAGUUUCUACCGGGCACCGUAAAUGUCCGACUGGAGCCGUUCGGGCGGCUAUAAACAGACCUCAGGCCCGAAGCGUGGCGGCACCUGCCGCCGGUGGUAAAAAAGAUCGGAAGAGCACACGUCU [U7A U8G G9A U10A U11G C12G C13U] | 1.48
GGGUCGAGAAGGGAUAAUCGCGUGGAUAUGGCACGCAAGUUUCUACCGGGCACCGUAAAUGUCCGACUGGAGCCGUUCGGGCGGCUAUAAACAGACCUCAGGCCCGAAGCGUGGCGGCACCUGCCGCCGGUGGUAAAAAAGAUCGGAAGAGCACACGUCU [U7A U8G G9A U10A U11G C12G C13G] | 1.46
GGGUCGAGAAGGAAUAAUCGCGUGGAUAUGGCACGCAAGUUUCUACCGGGCACCGUAAAUGUCCGACUGGAGCCGUUCGGGCGGCUAUAAACAGACCUCAGGCCCGAAGCGUGGCGGCACCUGCCGCCGGUGGUAAAAAAGAUCGGAAGAGCACACGUCU [U7A U8G G9A U10A U11G C12G C13A] | 1.38
GGGUCGAGAAGUAAUAAUCGCGUGGAUAUGGCACGCAAGUUUCUACCGGGCACCGUAAAUGUCCGACUGGAGCCGUUCGGGCGGCUAUAAACAGACCUCAGGCCCGAAGCGUGGCGGCACCUGCCGCCGGUGGUAAAAAAGAUCGGAAGAGCACACGUCU [U7A U8G G9A U10A U11G C12U C13A] | 1
GGGUCGAGAAGUUAUAAUCGCGUGGAUAUGGCACGCAAGUUUCUACCGGGCACCGUAAAUGUCCGACUGGAGCCGUUCGGGCGGCUAUAAACAGACCUCAGGCCCGAAGCGUGGCGGCACCUGCCGCCGGUGGUAAAAAAGAUCGGAAGAGCACACGUCU [U7A U8G G9A U10A U11G C12U C13U] | 1.33
GGGUCGAGAAGUGAUAAUCGCGUGGAUAUGGCACGCAAGUUUCUACCGGGCACCGUAAAUGUCCGACUGGAGCCGUUCGGGCGGCUAUAAACAGACCUCAGGCCCGAAGCGUGGCGGCACCUGCCGCCGGUGGUAAAAAAGAUCGGAAGAGCACACGUCU [U7A U8G G9A U10A U11G C12U C13G] | 1.52
GGGUCGAGACUAUAUAAUCGCGUGGAUAUGGCACGCAAGUUUCUACCGGGCACCGUAAAUGUCCGACUGGAGCCGUUCGGGCGGCUAUAAACAGACCUCAGGCCCGAAGCGUGGCGGCACCUGCCGCCGGUGGUAAAAAAGAUCGGAAGAGCACACGUCU [U7A U8G G9A U10C C12A C13U] | 1.12
GGGUCGAGACUAAAUAAUCGCGUGGAUAUGGCACGCAAGUUUCUACCGGGCACCGUAAAUGUCCGACUGGAGCCGUUCGGGCGGCUAUAAACAGACCUCAGGCCCGAAGCGUGGCGGCACCUGCCGCCGGUGGUAAAAAAGAUCGGAAGAGCACACGUCU [U7A U8G G9A U10C C12A C13A] | 1.05
GGGUCGAGACUAGAUAAUCGCGUGGAUAUGGCACGCAAGUUUCUACCGGGCACCGUAAAUGUCCGACUGGAGCCGUUCGGGCGGCUAUAAACAGACCUCAGGCCCGAAGCGUGGCGGCACCUGCCGCCGGUGGUAAAAAAGAUCGGAAGAGCACACGUCU [U7A U8G G9A U10C C12A C13G] | 1.14
GGGUCGAGAAGACAUAAUCGCGUGGAUAUGGCACGCAAGUUUCUACCGGGCACCGUAAAUGUCCGACUGGAGCCGUUCGGGCGGCUAUAAACAGACCUCAGGCCCGAAGCGUGGCGGCACCUGCCGCCGGUGGUAAAAAAGAUCGGAAGAGCACACGUCU [U7A U8G G9A U10A U11G C12A] | 1.08
GGGUCGAGAAGGCAUAAUCGCGUGGAUAUGGCACGCAAGUUUCUACCGGGCACCGUAAAUGUCCGACUGGAGCCGUUCGGGCGGCUAUAAACAGACCUCAGGCCCGAAGCGUGGCGGCACCUGCCGCCGGUGGUAAAAAAGAUCGGAAGAGCACACGUCU [U7A U8G G9A U10A U11G C12G] | 1.26
GGGUCGAGAAGUCAUAAUCGCGUGGAUAUGGCACGCAAGUUUCUACCGGGCACCGUAAAUGUCCGACUGGAGCCGUUCGGGCGGCUAUAAACAGACCUCAGGCCCGAAGCGUGGCGGCACCUGCCGCCGGUGGUAAAAAAGAUCGGAAGAGCACACGUCU [U7A U8G G9A U10A U11G C12U] | 1.14
GGGUCGAGACUCAAUAAUCGCGUGGAUAUGGCACGCAAGUUUCUACCGGGCACCGUAAAUGUCCGACUGGAGCCGUUCGGGCGGCUAUAAACAGACCUCAGGCCCGAAGCGUGGCGGCACCUGCCGCCGGUGGUAAAAAAGAUCGGAAGAGCACACGUCU [U7A U8G G9A U10C C13A] | 1.03
GGGUCGAGAACCAAUAAUCGCGUGGAUAUGGCACGCAAGUUUCUACCGGGCACCGUAAAUGUCCGACUGGAGCCGUUCGGGCGGCUAUAAACAGACCUCAGGCCCGAAGCGUGGCGGCACCUGCCGCCGGUGGUAAAAAAGAUCGGAAGAGCACACGUCU [U7A U8G G9A U10A U11C C13A] | 1.05
GGGUCGAGAACCUAUAAUCGCGUGGAUAUGGCACGCAAGUUUCUACCGGGCACCGUAAAUGUCCGACUGGAGCCGUUCGGGCGGCUAUAAACAGACCUCAGGCCCGAAGCGUGGCGGCACCUGCCGCCGGUGGUAAAAAAGAUCGGAAGAGCACACGUCU [U7A U8G G9A U10A U11C C13U] | 1.04
GGGUCGAGAACCGAUAAUCGCGUGGAUAUGGCACGCAAGUUUCUACCGGGCACCGUAAAUGUCCGACUGGAGCCGUUCGGGCGGCUAUAAACAGACCUCAGGCCCGAAGCGUGGCGGCACCUGCCGCCGGUGGUAAAAAAGAUCGGAAGAGCACACGUCU [U7A U8G G9A U10A U11C C13G] | 1.04
